Assay [1] is described as follows: Verification on enzyme activity of HAR: hyoscyamine aldehyde reduction reaction, product identified by high-resolution mass spectrometry. Conditions: phosphate buffer pH 6.4, 0.2 mM NADPH-4Na, 1 mM hyoscyamine aldehyde, 30 μg HAR protein, 1 h at 37.5° C. The format is biochemical, Atropa belladonna. Here is the method:
The constructed pET28a-HAR plasmid was converted to a prokaryotic expression stain BL21, and a positive clone was screened with PCR to obtain prokaryotic expression engineering bacteria BL21-pET28a-HAR. 100 μL of BL21-pET28a-HAR bacterial liquid was inoculated to a 30 mL of LB liquid medium containing 100 mg/L kanamycin for overnight culture at 37° C. and 200 rpm. Then, a product was respectively inoculated to 400 mL of LB liquid medium according to a ratio of 1 to 50 for activated culture at 37° C. and 200 rpm, and when OD600 was about 0.6, IPTG was added until a final concentration reached 1 mM. Culture was continued for 6 h at 37° C. and 200 rpm. The harvested bacterial liquid was subjected to centrifugation at 8000 rpm, and a supernatant was removed. Then precipitate bacteria were resuspended with a phosphate buffer, subjected to ultrasonication and then purified with a Ni-NTA filler from GE Company to obtain an HAR protein.
A hyoscyamine aldehyde reduction reaction system catalyzed by the HAR was as follows: a phosphate buffer (pH 6.4), 0.2 mM NADPH-4Na, 1 mM hyoscyamine aldehyde and 30 μg of HAR protein were incubated for 1 h at 37.5° C., and a reaction product was identified using a high-resolution mass spectrometer. […]

Assay [2] deals with Atropa belladonna hairy roots. The assay can be described thus: Content of hyoscyamine in transgenic Atropa belladonna hairy roots with HAR over-expression (HPLC). The format is cell-based. The source says: In order to study the effect of an HAR gene on tropane alkaloids in Atropa belladonna, a pericycle-specific high-expression vector PMT promoter::HAR was constructed, and an original plasmid was pBI121. Firstly, a 35S promoter on the original plasmid pBI121 was substituted with an AbPMT promoter by using digestion sites HindIII and Xba I; and the AbPMT promoter was subjected to PCR amplification with Atropa belladonna cDNA as a template and sequences as shown in SEQ ID NO. 7 and SEQ ID NO. 8 as primers. Then a GUS gene on the original plasmid was substituted with the HAR gene by using digestion sites BamHI and SacI; and the HAR gene was subjected to PCR amplification with Atropa belladonna cDNA as a template and sequences as shown in SEQ ID NO. 9 and SEQ ID NO. 10 as primers to obtain an HAR plant over-expression vector PMT promoter:: HAR. The primer sequences used were as follows: […]
The hairy roots were harvested after being subjected to shaking culture for 30 d in an MS liquid medium, and a material was freeze-dried to a constant weight in a freeze dryer. […] The alkaloids were dissolved with 1 mL of liquid chromatography grade methanol; the solution was filtered with a filter membrane of 0.22 μm; the content of the alkaloids was determined with HPLC; and a result was an average of three repeated experiments, where an error bar indicated a standard deviation. […]

B1: HAR: Hyoscyamine aldehyde reductase from Atropa belladonna, amino acid sequence SEQ ID NO. 4, encoded by SEQ ID NO. 3 (protein, listed as Atropa belladonna)
chain: MDSSGVLSPFTFSRRATGEEDVRLKVLYCGICHSDLGCIKNEWGWCSYPLVPGHEIVGIATEVGSKVTKFKVGDRVGVGCMVGSCGTCQNCTQNQESYCPEVIMTCASAYPDGTPTYGGFSNQMVANEKFVIRIPNSLPLDAAAPLLCAGSTVYSAMKFYGLCSQGLHLGVVGLGGLGHVAVKFAKAFGMKVTVISTSLGKKEEAINQLGADSFLINTDTEQMQGAMEVMDGIIDTVSALHPIEPLLGLLKSHQGKLIIVGLPNKQPELPVFSLINGRKMIGGSAVGGVKETQEMIDFAAEHNITADIEIVPMDYVNTAMERLEKGDVKFRFVIDVENTLVAAQT
B1: the “product of the hyoscyamine aldehyde reduction reaction catalyzed by the HAR” value in assay [1] is “a product of the hyoscyamine aldehyde reduction reaction catalyzed by the HAR was hyoscyamine”. Also, in assay [2] (AbHAR over-expression hairy roots versus non-transgenic hairy roots, same period), the “content of hyoscyamine relative to non-transgenic Atropa belladonna hairy roots” value was 1.83-2.58 times. In addition, in assay [2] (AbHAR over-expression hairy roots, 30 d shaking culture in MS liquid medium, ordinary hairy roots 2.32 mg/g DW), the “average content of hyoscyamine in hairy roots” value is 4.24-5.98 mg/g DW.

These data come from patent US20230039694A1, “H[…] REDUCTASE AND USES THEREOF” (Southwest University, priority 2019, published 2023).
